Target: Type I Human Collagen (human) (UniProt P02452)
Test: fluorescence polarisation; Cy5.5-labelled insulin formulated in saline (control) or in aCH (SPADE), mixed with a Type I human collagen solution at a predetermined w/w ratio; read immediately after mixing on a Molecular Devices Flexstation 3 plate reader

Chain of UniProt P02452 (P02452 162-1218, chain 1 of 2): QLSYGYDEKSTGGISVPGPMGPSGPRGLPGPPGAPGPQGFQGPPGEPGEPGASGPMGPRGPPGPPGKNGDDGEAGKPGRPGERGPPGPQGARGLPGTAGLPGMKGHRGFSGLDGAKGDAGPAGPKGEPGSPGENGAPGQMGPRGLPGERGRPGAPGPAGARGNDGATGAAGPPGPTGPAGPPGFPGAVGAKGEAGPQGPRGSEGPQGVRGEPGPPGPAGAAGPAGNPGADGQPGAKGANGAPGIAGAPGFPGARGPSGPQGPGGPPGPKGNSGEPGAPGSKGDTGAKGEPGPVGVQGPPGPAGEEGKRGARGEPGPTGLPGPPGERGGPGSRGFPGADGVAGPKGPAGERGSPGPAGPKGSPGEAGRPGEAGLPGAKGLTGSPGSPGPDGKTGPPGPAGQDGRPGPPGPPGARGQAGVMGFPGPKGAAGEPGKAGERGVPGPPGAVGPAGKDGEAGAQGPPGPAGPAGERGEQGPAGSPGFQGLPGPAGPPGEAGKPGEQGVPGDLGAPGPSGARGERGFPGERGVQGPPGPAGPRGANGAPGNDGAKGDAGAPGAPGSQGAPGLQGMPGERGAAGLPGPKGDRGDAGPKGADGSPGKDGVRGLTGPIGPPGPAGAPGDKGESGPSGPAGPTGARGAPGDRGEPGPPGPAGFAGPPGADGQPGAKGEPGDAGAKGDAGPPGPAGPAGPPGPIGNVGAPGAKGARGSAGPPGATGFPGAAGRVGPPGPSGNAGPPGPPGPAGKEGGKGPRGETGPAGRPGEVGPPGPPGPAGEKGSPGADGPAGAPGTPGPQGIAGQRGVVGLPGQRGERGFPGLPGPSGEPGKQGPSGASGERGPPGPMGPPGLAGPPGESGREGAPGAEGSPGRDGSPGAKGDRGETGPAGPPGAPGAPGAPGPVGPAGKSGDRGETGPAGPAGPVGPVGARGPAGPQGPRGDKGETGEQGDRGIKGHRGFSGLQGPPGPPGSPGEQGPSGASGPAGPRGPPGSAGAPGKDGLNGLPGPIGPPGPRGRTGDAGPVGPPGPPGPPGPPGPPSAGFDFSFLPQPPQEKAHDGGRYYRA
Chain of UniProt P02452 (P08123 80-1119, chain 2 of 2, further chain): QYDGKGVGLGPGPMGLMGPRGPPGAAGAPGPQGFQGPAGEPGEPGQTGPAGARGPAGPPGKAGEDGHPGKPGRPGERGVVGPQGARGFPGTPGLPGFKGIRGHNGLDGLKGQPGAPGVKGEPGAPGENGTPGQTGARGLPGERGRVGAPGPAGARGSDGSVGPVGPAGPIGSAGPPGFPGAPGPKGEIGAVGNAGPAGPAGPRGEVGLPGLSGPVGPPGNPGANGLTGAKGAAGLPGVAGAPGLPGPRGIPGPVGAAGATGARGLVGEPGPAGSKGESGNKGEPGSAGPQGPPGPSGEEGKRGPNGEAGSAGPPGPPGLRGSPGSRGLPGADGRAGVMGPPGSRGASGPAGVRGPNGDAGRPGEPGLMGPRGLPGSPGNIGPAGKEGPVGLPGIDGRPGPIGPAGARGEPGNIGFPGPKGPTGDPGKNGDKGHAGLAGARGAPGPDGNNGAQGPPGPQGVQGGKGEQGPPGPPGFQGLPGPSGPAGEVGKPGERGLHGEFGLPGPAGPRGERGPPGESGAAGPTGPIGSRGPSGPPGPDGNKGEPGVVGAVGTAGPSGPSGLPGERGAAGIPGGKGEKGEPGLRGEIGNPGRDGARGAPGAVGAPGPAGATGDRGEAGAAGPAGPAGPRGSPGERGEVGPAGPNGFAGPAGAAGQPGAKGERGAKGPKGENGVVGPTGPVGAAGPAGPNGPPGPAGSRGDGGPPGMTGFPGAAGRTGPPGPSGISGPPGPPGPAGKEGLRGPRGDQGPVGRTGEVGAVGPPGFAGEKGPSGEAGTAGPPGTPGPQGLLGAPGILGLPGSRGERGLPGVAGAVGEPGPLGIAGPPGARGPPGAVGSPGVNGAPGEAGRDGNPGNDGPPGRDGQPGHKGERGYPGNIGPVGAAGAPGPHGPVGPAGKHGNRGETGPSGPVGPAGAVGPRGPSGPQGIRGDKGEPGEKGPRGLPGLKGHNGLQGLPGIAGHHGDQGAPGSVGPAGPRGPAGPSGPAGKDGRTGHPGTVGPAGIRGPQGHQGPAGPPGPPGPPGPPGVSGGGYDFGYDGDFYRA

average polarisation of the saline control relative to the aCH (SPADE) formulation: 1.5 fold
Substance: Cy 5.5 fluorescently-labeled insulin (ligand)
